# Laboratory results as given in the nanobody polyreactivity screen of Harvey et al. (2022).
# Test: yeast display, Sf9 membrane polyspecificity reagent, FACS + sequencing; frameworks hold sequencing errors
# In short: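 Sorting gates, low and high (top ~1%), were placed on anti-HA fluorescence to track expression and on streptavidin fluorescence to track reagent binding. A clone's polyreactivity label is taken from the gate it came out of. The reagent was 10% biotinylated, detergent-solubilized Sf9 membrane, applied for 1 hour at 4 °C to galactose-induced yeast display cells.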
row,Sequence,polyreactivity (PSR sort gate)
1,QVQLVESGGGLVQAGGSLRLSCAASGFIFSKYARGCYRQAPGKEGELVAAITFSGGSTYYADSVKGRFTISRDNAKNTVYLQMHSLKPEDTAVYYCNAEGSYPDVSPVLGYDYWGQGTQVTVSS,low polyreactivity
2,QVQLVESGGGLVQAGGSLRLSCAASGFIFSKYTMGWYRQAPGKETELVAAISSGGRTYYADSVKGRFTISRDNAKNTVYLQMNSLKPEDTAVYYCAVRGYIASQQAAGGGRNYYYWGQGTQVNVSS,high polyreactivity
3,QVQLVESGGGLVQAGGSLRLSCAASGFIFSKYVMGWSRQAPGKERELVAAITRSGSSTYYADSVKGRFTISRDNAKNTVYLQMNSLKPEDTAVYYCAADGGYYDDDYWGQGTQVTVSS,high polyreactivity
4,QVQLVESGGGLVQAGGSLRLSCAASGFIFSLYAMGWYRQAPGKERELVAGISESGGSTYYADSVKGRFTISRDNAKNTVYLQMNSLKPEDTAVYYCNADDTVYFIKAGDYWGQGTQVTVSS,high polyreactivity
5,QVQLVESGGGLVQAGGSLRLSCAASGFIFSNNAMGWYRQAPGKERELVAAISGRGGSTYYADSVKGRFTISRDNAKNTVYLQMNSLKPEDTAVYYCNALYTYSYSRFDYWGQGTQVTVSS,low polyreactivity
6,QVQLVESGGGLVQAGGSLRLSCAASGFIFSNNAMGWYRQAPGKERELVAVINGGGSTYYADSVKGRFTISRDNAKNTVYLQMNSLKPEDTAVYYCARKSWPKERRVDPGYDYWGQGTQVTVSS,low polyreactivity
7,QVQLVESGGGLVQAGGSLRLSCAASGFIFSPYAMGGYRHEPGKEREFVAAITSRVGSTYYADSVKGRFTISRDNAKNTVYLQMNSLKPEDTAVYYCAATTDGLVGRPRYDYWGQGTQVTVSS,low polyreactivity
8,QVQLVESGGGLVQAGGSLRLSCAASGFIFSQYARGWYRQAPGKERELVAAISYSGGSTYYADSVKGRFTISRDNAKNTVYLQMNSLKPEDTAVYYCAVSGRSYYRSDYWGQGTQVTVSS,high polyreactivity
9,QVQLVESGGGLVQAGGSLRLSCAASGFIFSRNAMGWYRQAPGKERELVASITRRGGSKYYADSVKGRFTISRDYAKNTVYLQMNSLKPEDTAVYYCAADGYVRPPEMDYWGQGTQVTVSS,high polyreactivity
10,QVQLVESGGGLVQAGGSLRLSCAASGFIFSRNAMGWYRQAPGKVRELGAAISRVGSTYYADSVKGRFTISRDNAKNTVYLQMYSLKREDTAVYYCARAWGNGGKSIFDYWGQGTQVTVSS,high polyreactivity
11,QVQLVESGGGLVQAGGSLRLSCAASGFIFSRYAMGWSRQAPGKERELVAAIRFSGSITYYADSVKGRFTISRDNAKNTVYLQMNSLKPEDTAVYYCAAYRRYYGWYEYWGQGTQVTVSS,high polyreactivity
12,QVQLVESGGGLVQAGGSLRLSCAASGFIFSRYAMGWYRQAPGKERELVAAISGRGTSTYYADSVKGRFTISRDNAKNTVYLQMNSLKPEDTAVYYCNTYSQPKWGTSDYDYWGQGTQVTVSS,high polyreactivity
13,QVQLVESGGGLVQAGGSLRLSCAASGFIFSRYVMGWYRQAPGKEMELVAVISYRGGSTYYADSVKGRFTISRDNAKNTVYLQMNSLKPEDTAVYYCNADTIPDGEDRYDYWCQGTQVTVSS,low polyreactivity
14,QVQLVESGGGLVQAGGSLRLSCAASGFIFSSNAMGWYRPAPGKERELVARITSSDGSTYYADSVKGRFTISRDNAKNTVYLQMNSLKPEDTAVYYCAKGRDATHYEYYLYSMDYWGQGTQVTVSS,low polyreactivity
15,QVQLVESGGGLVQAGGSLRLSCAASGFIFSSYAMGWYRQAPGKERELVAAISRGGSTYYADSVKGRFTISRDNAKNTVYLQMNSLKPEDTAVYYCNARRYRHDGYWGQGTQVTVSS,high polyreactivity
16,QVQLVESGGGLVQAGGSLRLSCAASGFIFSSYAMGWYRQAPGKERELVAAISRSGGRTNYADSVKGRFTISRDNAKNTVYLQMNSLKPEDTAVYYCNADRKYWSLWGPAYDYWGHGTQVTVSS,high polyreactivity
17,QVQLVESGGGLVQAGGSLRLSCAASGFIFSTNAKGWYSQAPGKERELVATIRSGVSTYYADSVKGRFTISRDNAKNTVYLQMNSLKPEDTAVYYCNVDDTSRTTSGGRFGQVESDYWGQGTQVTVSS,low polyreactivity
18,QVQLVESGGGLVQAGGSLRLSCAASGFIFSTYAMGWYRQAPGKERELVAAITTSGSSTYYADSVKGRFTISRDNAKNTVYLQMNSLKPEDTAVYYCNAKYGYSAATDRGNYWGQGTQVTVSS,high polyreactivity
19,QVQLVESGGGLVQAGGSLRLSCAASGFIFSVNTMGWYRQAPGKERELVAAISGSGGSTYYADSVKGRFTISRDNAKITVYFQMNSLKPDDTAVYYCAARYTVTYDYWGQCTQVTVSS,high polyreactivity
20,QVQLVESGGGLVQAGGSLRLSCAASGFIFSVNTMGWYRQAPGKERELVAAISGSGGSTYYADSVKGRFTISRDNAKNTVYLQMNSLKPEDTAVYYCAAGVAWRFYSWGQGTQVTVSS,high polyreactivity
21,QVQLVESGGGLVQAGGSLRLSCAASGFIFSVYTMGWYRQAPGKERELVASITGSGGDTYYADSVKGRFTISRDNAKNTVYLQMNSLKPEDTAVYYCNVDAGFHDSYHAWNFRYDYWGQGTQVTVSS,low polyreactivity
22,QVQLVESGGGLVQAGGSLRLSCAASGFIFSWNDLGWYRQATGKERELVAAITSGTGSTYYADSVKGRFTISRDNAKNTVYLQMNSLKPEDTAVYYCAAGTNYGKLRIRFDYWGQGTQVTVSS,low polyreactivity

row,Sequence,polyreactivity (PSR sort gate)
1,QVQLVESGGGLVQAGGSLRLSCAASGFIFSWYVMGWYRQAPGKERELVAAISQSGGDTYYADSVKGRFTFSRDNAKNTVYLQMNILKPEDTAVYYCAVGRVGRFYYWGQGTQVTVSS,high polyreactivity
2,QVQLVESGGGLVQAGGSLRLSCAASGFIFSYNAMGWYRQAPGKERELVAAISSIGSGTYYADSVKGRFTISRDNAKNTVYLQMNSLKPEDTAVYYCAKYLRPRIGSRYYYWGQGTQVTVSS,high polyreactivity
3,QVQLVESGGGLVQAGGSLRLSCAASGFIFSYNAMGWYRQAPGKERELVASISRRSGITYYADSVKGRFTISRDNAKNTVYLQMNSLKPEDTAVYYCAVTQNSKSTKIRPDQGDYWGLGTQVTVSS,high polyreactivity
4,QVQLVESGGGLVQAGGSLRLSCAASGFIFSYYAMGWYRQAPGKERELVAAISRNGGRTYYADSVKGRFTISRDNAKNTVYLQMNSLIPEDTAVYYCAATTYRTSSYIRYGSPKHDDYWGQGTHVTVSS,high polyreactivity
5,QVQLVESGGGLVQAGGSLRLSCAASGFIFSYYAMGWYRQAPGKERELVAAITWDGGSTYYADSVKGRFTISRDNAKNTVYLQMNSLKPEDTAVYYCNAYYYYRRPLEGGYWGQGTQVTVSS,low polyreactivity
6,QVQLVESGGGLVQAGGSLRLSCAASGFIFSYYAMGWYRQAPGKERELVAAITWSGGGTYYADSVKGRFTISRDNAKNTVYLQMNSLKPEDTAVYYCAAERVYPDGEYWGQGTQVTVSS,high polyreactivity
7,QVQLVESGGGLVQAGGSLRLSCAASGFIFSYYAMGWYRQAPGKERELVADITSGGSTNYADSVKGRFTISRDNAKNTVYLQMNSLKPEDTAVYYCAATGLPGYYAYDYWGQGTQVTVTS,low polyreactivity
8,QVQLVESGGGLVQAGGSLRLSCAASGFIFSYYAMGWYRQAPGKERELVATINFSGGRTYYADSVKGRFTISRDNEKNTVYLQMNSLKPEDTAVYYCAASFYSYTSRYPDYYYWGQGTQVTVSS,high polyreactivity
9,QVQLVESGGGLVQAGGSLRLSCAASGFIFSYYTMGWYRQAPGKERELVAAISRNGGSTYYADSVKGRFTISRDNAKNTVYLQMNSLKPEDTAVYYCAKRVFNYQRYDYWGQGTQVSVSS,high polyreactivity
10,QVQLVESGGGLVQAGGSLRLSCAASGFIFSYYVMGWYREAPGKERELVAAISWNGGSTFYADSVKGRFTISRDNAKNSVYLQMNSLKPEDTAVYYCAAYPRFYGGKYGEYGYWGQGTQVTVSS,high polyreactivity
11,QVQLVESGGGLVQAGGSLRLSCAASGFIFSYYVMGWYRQAPGKERELVAAINESGGRTYYADSVKGRFTISRDNAKNTVYLQMNSLKQEDTAVYYCAASVLNKIQGYRDYYWGQGTKVTVSS,low polyreactivity
12,QVQLVESGGGLVQAGGSLRLSCAASGFIFTANAMGWYRQAPGKERELVAAINWSDGGTYYADSVKGRFTISRDNAKNTVYLQMNSLKPEDTAVYYCNAQWAWTYYYWGQGTQVTVSS,low polyreactivity
13,QVQLVESGGGLVQAGGSLRLSCAASGFIFTDNAMGWYRQAPGKERELVAAISKNGGSTYYADSVKGRFTISRDNAKNTVYLQMNSLKQEDTAVYYCNTRRKNFVKSSQVEYWGQGTQVTVSS,high polyreactivity
14,QVQLVESGGGLVQAGGSLRLSCAASGFIFTDYAMGWYRQATGQEREFVAAIDWSGGNTYYADSVKGRFTISRDNAKNTVYLQLNSLKPEDTAVFFCSASGSAREYDYWGQGTQVTVSS,low polyreactivity
15,QVQLVESGGGLVQAGGSLRLSCAASGFIFTGYAMGWYRQAPGKERELVAAISSSGGRTYYADSVKGRFTISRDNAKNTVYLQMNSLKPEDTAVYYCAAYYITFIGRGYGYWGQGTQVTVSS,high polyreactivity
16,QVQLVESGGGLVQAGGSLRLSCAASGFIFTIYALGWYRQAPGKERELVAAIDSSGTTYYADSVKGRFTISRDNAKNTVYLQMNSLKPEDTAVYYCNTDIYVQYGWGQGTQVTVSS,low polyreactivity
17,QVQLVESGGGLVQAGGSLRLSCAASGFIFTIYAMGWYRQAPGKERELVAAITWNGGRTYYADSVKGRFTISRDNAKNTVDLQMNSLKPEDTAVYYCAARYGRAYDYWGQGSQVTVSS,high polyreactivity
18,QVQLVESGGGLVQAGGSLRLSCAASGFIFTKYSMGWYRQAPGKERELVAAIRGSGGSTYYADSVKGRFTISRDIAKNSVYLQMNSLKPEDTAVYYCAAERSLGYDYWGQGTQVTVSS,high polyreactivity
19,QVQLVESGGGLVQAGGSLRLSCAASGFIFTPNAMGWYRQAPGKERELVATISWRGTGTYYADSVKGRFTISRDTAKNTVYLQMNSLNPVDTAVYYCAVRFYSFHYYRIYTYSVTYDYWGQGTQVTVSS,high polyreactivity
20,QVQLVESGGGLVQAGGSLRLSCAASGFIFTPYAMGWYRQAPGKERELVAAITWRGARTYYADSVKGRFTISRDNAKNTVYLQMNSLKPEDTAVYYCATTFTGYNKEFGYWGQGTQVTVSS,high polyreactivity
21,QVQLVESGGGLVQAGGSLRLSCAASGFIFTQNAMGWYRQAPGKERELVAVIRWNGGSTYYADSVKGRITISRDNAKNTVYLQMNSLKREDTAVYYCAAEFLWIVDYWGQGTQVTVSS,low polyreactivity
